Test results taken from paper PMC2978336.

T1: DnaD-Cd (DnaD-Cd232) (Bacillus subtilis, UniProt P39787 129-232)
T1 sequence: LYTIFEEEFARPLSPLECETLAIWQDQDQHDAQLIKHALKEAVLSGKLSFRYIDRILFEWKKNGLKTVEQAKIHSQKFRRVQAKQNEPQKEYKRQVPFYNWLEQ

T2: DnaD-Cd196 (Bacillus subtilis, UniProt P39787 129-196)
T2 sequence: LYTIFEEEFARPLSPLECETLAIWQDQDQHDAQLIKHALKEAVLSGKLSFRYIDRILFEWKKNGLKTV

T3: DnaD-Cd206 (Bacillus subtilis, UniProt P39787 129-206)
T3 sequence: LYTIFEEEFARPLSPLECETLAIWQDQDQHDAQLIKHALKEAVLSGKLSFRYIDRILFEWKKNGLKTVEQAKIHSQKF

T4: DnaD-Cd215 (Bacillus subtilis, UniProt P39787 129-215)
T4 sequence: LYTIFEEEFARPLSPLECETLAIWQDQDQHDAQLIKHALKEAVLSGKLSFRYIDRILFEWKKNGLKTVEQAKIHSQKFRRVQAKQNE


Legend:
[1] = molecular target: T1, DnaD-Cd (DnaD-Cd232); assay: NMR
[2] = molecular target: T2, DnaD-Cd196; assay: NMR
[3] = molecular target: T3, DnaD-Cd206; assay: NMR
[4] = molecular target: T4, DnaD-Cd215; assay: NMR
[5] = molecular target: T2, DnaD-Cd196; assay: EMSA

Row | Binder | binding result [1] | binding result [2] | binding result [3] | binding result [4] | binding result [5]
1 | GTTATTGCTC (ssDNA) [10-mer ssDNA] | binds | no binding | no binding | binds | –
2 | CTCAGTTTCCGCGCGATTGACCGGATT (ssDNA) [Y180AF ss probe] | – | – | – | – | no binding
